Test results: patent US20170002084A1

Tests used:
Canine CD20 (canine) [1] = target: Canine CD20 (canine) (UniProt Q3C2E2); experiment: FACS on CHO cells expressing recombinant canine CD20
Canine CD20 (canine) [2] = target: Canine CD20 (canine) (UniProt Q3C2E2); experiment: cell-based or functional assay

Chain of Canine CD20 (canine) (Q3C2E2 other isoform, or with tags, fused parts or gaps): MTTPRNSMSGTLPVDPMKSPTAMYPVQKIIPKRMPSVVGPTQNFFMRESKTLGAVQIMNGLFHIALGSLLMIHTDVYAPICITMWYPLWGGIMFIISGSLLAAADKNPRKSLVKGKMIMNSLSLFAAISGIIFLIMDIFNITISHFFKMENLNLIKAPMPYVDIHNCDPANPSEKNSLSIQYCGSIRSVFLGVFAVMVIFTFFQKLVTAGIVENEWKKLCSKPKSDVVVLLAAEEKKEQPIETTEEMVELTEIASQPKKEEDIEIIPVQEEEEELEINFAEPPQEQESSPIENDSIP

B1: anti-canine CD20 antibody CD20-4 (antibody, part only; not given: light chain, V domains shown, part only)
VH: EVQLQQSVAELVRPGASVTLSCKASGYTFTDYEMHWVKQTPVHGLEWIGEIDPETGGTAYNQKFKGKAILTADKSSSTAYMELRSLTSEDSAVYYCTEYAMDYWGQGTSVTVSS
B1 gave a Kd (Canine CD20 (canine) [1]) of 77.4 nM and a Reduction (%) of cell proliferation of lymphoma cells (Canine CD20 (canine) [2]) of 17.5%.
